Experimental data from patent publication US20140348834A1 (published 2014).
Like-named read-outs stand apart in the source and are kept apart here.

T1: rat IL-17A (rat, UniProt Q61453 18-150, limits assumed)
T1 sequence (looked up): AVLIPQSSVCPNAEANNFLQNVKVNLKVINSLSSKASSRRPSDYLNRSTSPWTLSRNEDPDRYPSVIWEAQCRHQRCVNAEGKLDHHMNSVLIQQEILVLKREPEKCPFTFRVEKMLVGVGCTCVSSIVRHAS

T2: rat IL-17A (rat, UniProt Q61453 18-150, limits assumed)
T2 sequence (looked up): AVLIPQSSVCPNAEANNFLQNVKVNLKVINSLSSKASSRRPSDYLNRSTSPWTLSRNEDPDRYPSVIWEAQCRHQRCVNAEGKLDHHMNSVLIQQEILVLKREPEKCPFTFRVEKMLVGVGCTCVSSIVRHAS


Tests used:
human IL-17A [1] = target: T3, human IL-17A (human, UniProt Q16552 24-155); assay: hIL17A ELISA
T3 construct: Recombinant; biotinylated in the ELISA; also called hIL-17; hIL17A
T3 sequence (Q16552 24-155): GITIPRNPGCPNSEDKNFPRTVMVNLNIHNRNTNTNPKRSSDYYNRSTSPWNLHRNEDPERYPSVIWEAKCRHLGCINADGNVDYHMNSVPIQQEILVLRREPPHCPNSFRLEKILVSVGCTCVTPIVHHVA

human IL-17A [2] = target: T3, human IL-17A; assay: cell-based or functional assay
cynomolgus monkey IL-17A = cynomolgus monkey IL-17A (cynomolgus monkey, UniProt A0A2K5TTB0 24-155); assay: cell-based or functional assay
cynomolgus monkey IL-17A, sequence (A0A2K5TTB0 entry or part of it): as the sequence (Q16552 24-155) above, with T3A, P8S, N34S, I77V, N78K, P104R counted along it

rat IL-17A [3] = target: T1, rat IL-17A; assay: cell-based or functional assay
human IL-17A [4] = target: T4, human IL-17A (human, UniProt Q16552 24-155); assay: cell-based or functional assay; remark: listed apart in the source
T4 sequence (Q16552 24-155 limits assumed): as the sequence (Q16552 24-155) above

human IL-17A/F = human IL-17A/F (human, UniProt Q16552 24-155; Q96PD4 31-163); assay: cell-based or functional assay
human IL-17A/F, sequence (Q16552 24-155 limits assumed, chain 1 of 2): as the sequence (Q16552 24-155) above
human IL-17A/F, sequence (Q96PD4 31-163 limits assumed, chain 2 of 2): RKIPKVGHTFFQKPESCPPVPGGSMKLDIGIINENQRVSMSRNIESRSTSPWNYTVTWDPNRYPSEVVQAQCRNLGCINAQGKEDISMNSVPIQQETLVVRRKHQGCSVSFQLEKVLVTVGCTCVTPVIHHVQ

[5] = target: cynomolgous monkey (cyno) IL-17A (cynomolgus monkey, UniProt A0A2K5TTB0 24-155); assay: cell-based or functional assay
cynomolgous monkey (cyno) IL-17A, sequence (A0A2K5TTB0 entry or part of it): as the sequence (Q16552 24-155) above, with T3A, P8S, N34S, I77V, N78K, P104R counted along it

rat IL-17A [6] = target: T2, rat IL-17A; assay: cell-based or functional assay; remark: listed apart in the source
human IL-17A [7] = target: T4, human IL-17A; assay: ELISA, captured antibody, serially diluted biotin-IL-17 (Example 1.5.1)
Description: The following protocol is used to characterize the binding of IL-17 antibodies to human IL-17 by enzyme-linked immunosorbent assay (ELISA). […] 1. Coat ELISA plate with 50 μl per well of Goat anti Mouse IgG-Fc at 2 ug/ml, overnight at 4° C. […] 2. Wash plate 3×PBS/Tween. […] 3. Add 50 μl Mab diluted to 1 μg/ml in PBS/0.1% BSA to appropriate wells. Incubate 1 hr at room temperature (RT). […] 4. Wash plate 3× with PBS/Tween. […] 5. Add 50 μl of serial diluted biotin-IL17 (human IL-17, IL-17A/F, cyno IL-17) to appropriate wells. Incubate 1 hr at room temperature (RT). […] 6. Wash plate 3× with PBS/Tween. […] 7. […] Incubate 1 hr at RT. […] 8. Wash plate 3× with PBS/Tween. […] 9. […] 10. Stop reaction with 50 μl 2N H₂SO₄. […] Read absorbance at 450 nm.

Binder | EC50 (human IL-17A [1]) | Potency (pM), IL-17-driven IL-6 production in HS27 cells (human IL-17A [2]) | Potency (pM), IL-17-driven IL-6 production in HS27 cells (cynomolgus monkey IL-17A) | Potency (pM), IL-17 and TNF-alpha-driven IL-6 production in NIH3T3 cells (rat IL-17A [3]) | Potency (pM), IL-17-driven IL-6 production in HS27 cells (human IL-17A [4]) | Potency (pM), IL-17-driven IL-6 production in HS27 cells (human IL-17A/F) | Potency (pM), IL-17-driven IL-6 production in HS27 cells [5] | Potency (pM), IL-17 and TNF-induced IL-6 secretion from NIH3T3 cells (rat IL-17A [6]) | EC50 (human IL-17A [7])
IL17-h5C5.3 (antibody, V domains shown, IgG; constant regions not specified) VH: EVQLVQSGAEVKKPGASVKVSCKASGYTFTDYEFHWVRQAPGQGLEWIGVIHPGNGGTAYNQNFRDRATLTADKSTSTAYMELSSLRSEDTAVYYCTRFLTYEGYFDYWGQGTLVTVSS VL: NIVMTQTPKFLLVSPGDRVTITCKASQSVSIDVGWFQQKPGQSPKLLIYHASNRYTGVPDRFTGSGYGTDFTFTVNTVQAEDLAVYFCQQDYSSPYTFGGGTKLELKR | 1.37 nM | 5 pM | 12 pM | 2520 pM | – | – | – | – | –
m5C5.hIgG1 (antibody, V domains shown) VH: QVQLQQSGAELVRPGASVKLSCKALGYTFTDYEFHWVKQTPVHGLEWIGVIHPGNGGTAYNQNFRDKATLTADKSSSTAYMELSSLTSEDSGVYYCTRFLTYEGYFDYWGQGTALTVSS VL: NIVMTQTPKFLLVSPGDRVTITCKASQSVSIDVGWFQQKPGQSPKLLIYHASNRYTGVPDRFTGSGYGTDFTFTVNTVQAEDLAVYFCQQDYSSPYTFGGGTKLELKR | – | 11 pM | – | 4910 pM | – | – | – | – | –
IL17-B6-15 (antibody, V domains shown, also called pJP245 B6.1 #15VH / pJP246 B6.1 #15Vk) VH: EVQLVQSGAEVKKPGESLKISCKASGGSFSGYGTSWVRQAPGQGLEWMGGITHFFGAVDYAQKFQGRVTITADESTTTAYMELSGLTSDDTAVYYCARDPNEFWNGYYATHDFDYWGQGTTVTVSS VL: EIVLTQSPDFQSVTPKEKVTITCRASQNIGAELHWYQQKPDQSPKLLIKYASHSISGVPSRFSGSGSGTDFTLTINGLEAEDAGTYYCHQTDRLPYSFGPGTKVDIK | – | – | – | – | 24 pM | 162 pM | 10 pM | 17 pM | 0.13 nM
IL17-B6-16 (antibody, V domains shown, also called pJP247 B6.1 #16VH / pJP248 B6.1 #16Vk) VH: EVQLVQSGAEVKMPGSSLKISCKASGGSFRGYGISWVRQAPGQGLEWMGGITPFFGWADYAQKFQGRVTITADESTTTAYMELSGLTSDDTAVYYCARDPNEFWNGYYDTHHFDYWGQGTTVTVSS VL: EIVLTQSPDFQSVTPKEKVTITCRASQDIGSALHWYQQKPDQSPKLLIKYASHSVSGVPSRFSGSGSGTDFTLTINGLEAEDAGTYYCHQSDILPHTFGPGTKVDIK | – | – | – | – | 26 pM | 114 pM | 13 pM | 167 pM | 0.16 nM
